According to article PMC11588662 (2024):

Molecular target: CD33 Db-FM (fluorescein-maleimide-labelled anti-CD33 diabody, clone SGN-33) (fluorescein-5-maleimide on the engineered C-terminal cysteine (added after the hexahistidine tag))
Test: SPR

B1: extracellular domain of CD33, His-tagged protein (domain or fragment)
chain: DPNFWLQVQESVTVQEGLCVLVPCTFFHPIPYYDKNSPVHGYWFREGAIISRDSPVATNKLDQEVQEETQGRFRLLGDPSRNNCSLSIVDARRRDNGSYFFRMERGSTKYSYKSPQLSVHVTDLTHRPKILIPGTLEPGHSKNLTCSVSWACEQGTPPIFSWLSAAPTSLGPRTTHSSVLIITPRPQDHGTNLTCQVKFAGAGVTTERTIQLNVTYVPQNPTTGIFPGDGSGKQETRAGVVH
Kd: 7 nM
